The target of assay [1] is T1, Ala mutant of TA0096, SEQ ID NO: 32.
T1 sequence (peptide): EENMDAQWMQDEMEIGY
Kind of assay: ELISA, coated peptide. A general note: An ELISA detects its analyte on a solid surface through an enzyme-linked reagent.

Assay [2] concerns the target T2, Ala mutant having 3-amino acid substitution, SEQ ID NO: 46.
T2 sequence (peptide): EENMDDAAAQDEMEIGY
In words: ELISA, coated peptide.

We go through three molecules from patent US20180044434A1.

B1: A11 (antibody, V domains shown)
VH: AVTLDESGGGLQTPGGALSLVCKASGFDFSSYGMGWMRQAPGKGLEYVAAIRNDGSWTGYGAAVKGHATISRDNGQSTVRLQLNNLRAEDTGTYYCAKTTGSRGGSIDAWGHGTEVIVS
VL: ASTQPSSVSANLGGTVEITCSGGGRYYYGWYQQKSPGSAPVTVIYANDKRPSDIPSRFSGSKSGSTGTLTITGVQAEDEAVYFCGSAETSSYVFGAGTTLTVL
In assay [1], B1 returned an OD 490/630 nm of 0.628.

B2: G8 (antibody, V domains shown)
VH: AVTLDESGGGLQTPGGALSLVCKASGFTFSTYAMGWMRQAPGKGLEYVAAIRNDGSWTGYGAAVKGRATILRDNGQSTVRLQLSNLRAEDTGTYYCAKYTGSSGGSIGAWGHGTEVIVS
VL: ASTQPSSVSANLGGTVEITCSGGNRNYYYGWYQQKSPGSAPVTLIYANDKRPSNIPSRFSGSKSGSTGTLTITGVQAEDEAVYFCGTADTGKYVFGAGTTLTVL
Consider B2, for which the OD 490/630 nm in assay [2] is 0.178.

B3: E9 (antibody, V domains shown)
VH: AVTLDESGGGLQTPGGTLSLVCKGSGFTFSSYGMGWMRQAPGKGLEYVAAIRNDGSWTGYGSAVKGRATISRDNGQSTVRLQLNNLRAEDTATYYCAKTSGSSGGSVDAWGHGTEVIVS
VL: ASTQPSSVSANLGGTVEITCSGGGRYYYGWYQQKSPGSAPVTVIYANDKRPSDIPSRFSGSKSGSTGTLTITGVQAEDEAVYFCGSAETSSYVFGAGTTLTVL
Regarding B3, the OD 490/630 nm in assay [1] is 0.177.
